Experimental data published in patent publication US20190135868.

What was measured:
RTD913 SMCC (synthetic) = test system: T1, RTD913 SMCC (synthetic); test: EMSA; conditions: stable complex formation, somewhat unstable binding; text p911 gives ~50-100 nM
T1 sequence 1: KRAHHNALERXRRDXIKDS
T1 sequence 2: KRRTHNXLERXRRNELKRS

[1] = test system: T2, RTD84 (stapled sDBD) (synthetic); test: EMSA; conditions: text p911 gives EC50 ~50-100 nM
T2 sequence 1: KRXHHNXLERKRRDHIKDS
T2 sequence 2: KRRTHNXLERXRRNELKRS

Sequence: CACGTG (double strand) [E-box probe (E1)]
- EC50 (RTD913 SMCC (synthetic)): 0.02 µM
- Kd [1]: 0.05 µM
